Legend:
[1] = biological target: Notch1 on stably transfected NIH-3T3 cells; assay: cell-based or functional assay
[2] = biological target: N-myc-Notch2 on K1-CHO cells; assay: FACS dot plot α-Myc (PE) against α-NRR1 (FITC), K1-CHO myc-N2 cells, -Dox (leaky expression per the text), panel 6 (other quadrants: upper left 18, lower left 81.8, lower right 0.1)
[3] = biological target: hamster Notch2, endogenous on K1-CHO cells (hamster); assay: FACS dot plot α-Myc (PE) against α-NRR1 (FITC), untransfected K1-CHO cells, +Dox, panel 1 (other quadrants: upper left 0.15, upper right 0.034, lower left 99.7)
[4] = biological target: N-myc-Notch1 on K1-CHO cells; assay: FACS dot plot α-Myc (PE) against α-NRR1 (FITC), K1-CHO myc-N1 cells, +Dox, panel 2 (other quadrants: upper left 17.1, lower left 26.2, lower right 0.077)
[5] = biological target: N-myc-Notch1 on K1-CHO cells; assay: FACS dot plot α-Myc (PE) against α-NRR1 (FITC), K1-CHO myc-N1 cells, -Dox (transgene not induced), panel 5 (other quadrants: upper left 0.72, lower left 99, lower right 0.14)
[6] = biological target: N-myc-Notch2 on K1-CHO cells; assay: FACS dot plot α-Myc (PE) against α-NRR1 (FITC), K1-CHO myc-N2 cells, +Dox, panel 3 (other quadrants: upper left 58.6, lower left 41.3, lower right 0.026)
[7] = biological target: mouse Notch1 NRR protein (mouse) (UniProt Q01705); assay: SPR
Chain of mouse Notch1 NRR protein (mouse) (Q01705 1446-1723 limits assumed): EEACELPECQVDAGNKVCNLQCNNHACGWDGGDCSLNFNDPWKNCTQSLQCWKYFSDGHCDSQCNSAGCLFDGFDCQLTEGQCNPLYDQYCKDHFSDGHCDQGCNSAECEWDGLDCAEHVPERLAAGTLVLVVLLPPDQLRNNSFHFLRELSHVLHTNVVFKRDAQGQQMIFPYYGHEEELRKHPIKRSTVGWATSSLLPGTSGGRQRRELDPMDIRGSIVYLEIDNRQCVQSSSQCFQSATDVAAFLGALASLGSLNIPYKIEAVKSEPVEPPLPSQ

[8] = biological target: human Notch1 NRR protein (human) (UniProt P46531); assay: SPR
Chain of human Notch1 NRR protein (human) (P46531 1446-1733 limits assumed): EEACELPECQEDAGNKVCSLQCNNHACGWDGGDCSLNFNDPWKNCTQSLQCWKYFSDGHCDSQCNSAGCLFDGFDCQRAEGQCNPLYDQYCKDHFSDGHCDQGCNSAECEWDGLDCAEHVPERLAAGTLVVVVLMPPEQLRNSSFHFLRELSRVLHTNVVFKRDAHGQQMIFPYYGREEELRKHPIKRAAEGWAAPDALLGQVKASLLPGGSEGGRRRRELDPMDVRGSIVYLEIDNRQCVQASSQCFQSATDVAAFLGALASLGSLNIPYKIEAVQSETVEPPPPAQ

[9] = biological target: hamster Notch2, endogenous on K1-CHO cells (hamster); assay: FACS dot plot α-Myc (PE) against α-NRR1 (FITC), untransfected K1-CHO cells, -Dox, panel 4 (other quadrants: upper left 0.13, upper right 0.041, lower left 99.7)
[10] = biological target: mouse Notch1 NRR protein (mouse) (UniProt Q01705); assay: ELISA on captured Flag-tagged NRR protein
[11] = biological target: human Notch1 NRR protein (human) (UniProt P46531); assay: ELISA on captured Flag-tagged NRR protein

- Notch reporter (luciferase) in Jag1 co-culture assay: antibody concentration for complete inhibition of Notch1 signaling [1]: 80 to 400 ng/mL
- % of cells in the α-Myc-positive / α-NRR1-positive quadrant (upper right) [2]: 0.13%
- % of cells in the α-Myc-negative / α-NRR1-positive quadrant (lower right) [3]: 0.082%
- % of cells in the α-Myc-positive / α-NRR1-positive quadrant (upper right) [4]: 56.6%
- % of cells in the α-Myc-positive / α-NRR1-positive quadrant (upper right) [5]: 0.097%
- % of cells in the α-Myc-positive / α-NRR1-positive quadrant (upper right) [6]: 0.064%
- Kd [7]: 3 nM
- Kd [8]: 3 nM
- % of cells in the α-Myc-negative / α-NRR1-positive quadrant (lower right) [9]: 0.12%
- EC50 [10]: 0.1 µg/mL
- EC50 [11]: 0.1 µg/mL
Substance: anti-NRR1 (antibody)
